For the experiment, the target named is His6-Mad2 (recombinant human Mad2) (human, UniProt Q13257 1-205). Description: pull-down.
Chain of His6-Mad2 (recombinant human Mad2) (Q13257 whole entry): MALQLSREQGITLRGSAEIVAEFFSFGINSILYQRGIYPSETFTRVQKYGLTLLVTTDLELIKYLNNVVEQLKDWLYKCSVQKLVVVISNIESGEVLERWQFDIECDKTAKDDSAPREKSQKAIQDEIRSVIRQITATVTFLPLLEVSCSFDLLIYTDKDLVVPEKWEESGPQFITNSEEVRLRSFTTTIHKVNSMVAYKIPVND

B1: GST-Cdc20^N151 (first 151 amino acids of human Cdc20), wild type (domain or fragment)
chain: MAQFAFESDLHSLLQLDAPIPNAPPARWQRKAKEAAGPAPSPMRAANRSHSAGRTPGRTPGKSSSKVQTTPSKPGGDRYIPHRSAAQMEVASFLLSKENQPENSQTPTKKEHQKAWALNLNGFDVEEAKILRLSGKPQNAPEGYQNRLKVL
Consider B1, for which the binding result was “binds”.

Source of the values: PMC3461516 (The Journal of Cell Biology, 2012).
